The values that follow come from PMC3893830, “Manipulating Conserved Heme Cavity Residues of Chlorite Dismutase: Effect on Structure, Redox Chemistry, and Reactivity” (Biochemistry, 2013).

Substrate in this data set: [O-][Cl+]O
The experiment in a line: O2 release, Clark-type oxygen electrode. Type of data set: biochemical, Nitrospira defluvii. The note with it: 50 mM phosphate pH 7.0, 30 °C, O2-free buffer, low heme occupancy. From the text: O2 release, Clark-type oxygen electrode on NdCld

B1: NdCld (Nitrospira defluvii; E236A/R199Q) (protein)
chain: ADREKLLTESGVYGTFATFQMDHDWWDLPGESRVISVAEVKGLVEQWSGKILVESYLLRGLSDHADLMFRVHARTLSDTQQFLSAFMGTRLGRHLTSGGLLHGVSKKPTYVAGFPESMKTELQVNGESGSRPYAIVIPIKKDAEWWALDQEARTALMQEHTQAALPYLKTVKQKLYHSTGLDDVDFITYFETERLEDFHNLVRALQQVKAFRHNRRFGHPTLLGTMSPLDEILEKFAQ
notes: N-terminal TEV-cleavable Strep-II tag, N-terminal signal peptide removed; expressed in E. coli Tuner (DE3), StrepTrap purified; homopentamer with heme b
B1: the Km turned out to be 184 ± 36 µM, the kcat came out at 0.9 s⁻¹ and the kcat/Km was 4600 M⁻¹ s⁻¹.

The term Km denotes the substrate concentration at which the rate is half of its maximum. As usually defined, the kcat is the number of substrate molecules converted per active site and unit of time at saturation. By kcat/Km is commonly meant the second-order rate constant that governs catalysis at low substrate concentration.
